{"source": "patent US7833548B2", "about": "“Bioactive agent release coating and controlled humidity method” (Surmodics, Inc., priority 2002, dated 2010)", "assay": "Bioactive Agent Release Assay, dextran-TRITC from discs with polymer topcoat coated under controlled humidity", "format": "physicochemical", "conditions": "pEVA (33% vinyl acetate)/pBMA topcoat over dextran-TRITC layer, PBS, 37° C.; FIG. 2", "method": "Two solutions were prepared in order to provide a coating composition of the presently claimed invention in the form of a two part system. The first solution was an aqueous solution containing the bioactive agent, dextran-TRITC, at a concentration of 15 mg/ml. The second solution contained poly(ethylene-co-vinylacetate) with a vinyl acetate concentration of 33% (w/w) and poly(n-butyl methacrylate), with approximate weight average molecular weight of 337 kilodaltons. The poly(n-butyl methacrylate) and poly(ethylene-co-vinylacetate) were purified by extraction with organic solvents to remove impurities, e.g., monomer residues. The polymers of the second solution were dissolved in tetrahydrofuran at a concentration of 10 mg/ml. […]\nA suitable Bioactive Agent Release Assay, as describe herein, can be used to determine the extent and rate of bioactive agent release under physiological conditions. In general it is desirable that less than 50% of the total quantity of the bioactive agent be released in the first 24 hours. It is frequently desirable for quantities of bioactive agent to be released for a duration of at least 30 days.\nExcept as otherwise provided herein, each coated disc was placed in an amber vial with 4 mls of PBS. […] The concentration of bioactive agent in each PBS sample was determined using UV spectroscopy. […]", "data": [{"substance": "tetramethylrhodamine isothiocyanate-Dextran [dextran-TRITC]", "values": [{"measurement": "release rate of the bioactive agent, topcoat coated at 48% relative humidity versus 10% relative humidity", "value": "released at a faster rate"}]}]}
